Experimental data published in US20150005238A1 (PAION DEUTSCHLAND, published 2015).
Positions count from the first letter of the chain named.

B1: TME with deletion of Gln387 (receptor)
chain: CSVENGGCEHACNAIPGAPRCQCPAGAALQADGRSCTASATQSCNDLCEHFCVPNPDQPGSYSCMCETGYRLAADQHRCEDVDDCILEPSPCPQRCVNTQGGFECHCYPNYDLVDGECVEPVDPCFRANCEYQCQPLNQTSYLCVCAEGFAPIPHEPHRCMFCNQTACPADCDPNTQASCECPEGYILDDGFICTDIDECENGGFCSGVCHNLPGTFECICGPDSALARHIGTDC
B2: TME with deletion of Phe389 (receptor)
chain: B1 chain with M161Q, F162M
B3: TME with deletion of Met388 (receptor)
chain: B1 chain with M161Q
B4: TME with Ala inserted between 386 and 387 (receptor)
chain: CSVENGGCEHACNAIPGAPRCQCPAGAALQADGRSCTASATQSCNDLCEHFCVPNPDQPGSYSCMCETGYRLAADQHRCEDVDDCILEPSPCPQRCVNTQGGFECHCYPNYDLVDGECVEPVDPCFRANCEYQCQPLNQTSYLCVCAEGFAPIPHEPHRCAQMFCNQTACPADCDPNTQASCECPEGYILDDGFICTDIDECENGGFCSGVCHNLPGTFECICGPDSALARHIGTDC
B5: TME with Ala inserted between 389 and 390 (receptor)
chain: B4 chain with A161Q, Q162M, M163F, F164A
B6: TME with Ala inserted between 388 and 389 (receptor)
chain: B4 chain with A161Q, Q162M, M163A
B7: TME with Ala inserted between 387 and 388 (receptor)
chain: B4 chain with A161Q, Q162A
B8: Recombinant soluble thrombomodulin (Solulin) (receptor)
chain: EPQPGGSQCVEHDCFALYPGPATFLNASQICDGLRGHLMTVRSSVAADVISLLLNGDGGVGRRRLWIGLQLPPGCGDPKRLGPLRGFQWVTGDNNTSYSRWARLDLNGAPLCGPLCVAVSAAEATVPSEPIWEEQQCEVKADGFLCEFHFPATCRPLAVEPGAAAAAVSITYGTPFAARGADFQALPVGSSAAVAPLGLQLMCTAPPGAVQGHWAREAPGAWDCSVENGGCEHACNAIPGAPRCQCPAGAALQADGRSCTASATQSCNDLCEHFCVPNPDQPGSYSCMCETGYRLAADQHRCEDVDDCILEPSPCPQRCVNTQGGFECHCYPNYDLVDGECVEPVDPCFRANCEYQCQPLNQTSYLCVCAEGFAPIPHEPHRCQLFCNQTACPADCDPNTQASCECPEGYILDDGFICTDIDECENGGFCSGVCHNLPGTFECICGPDSALAGQIGTDCDSGKVDGGDSGAGEPPPSPTPGSTLTPP
notes: Obtained from PAION; also called sTM; recombinant human soluble thrombomodulin

What follows are binders tested against thrombin (APC / TAFI activation assays of Examples V, VI and VIII; source not stated for the assay) (assay: cell-based or functional assay).

cofactor activity (APC assay) | Binder
< 10 % of wild type TME | B1
< 10 % of wild type TME | B2
< 10 % of wild type TME | B3
< 10 % of wild type TME | B4
< 10 % of wild type TME | B5
< 10 % of wild type TME | B6
< 10 % of wild type TME | B7

Each binder was assayed against human thrombin (human, UniProt P00734 328-622) (assay: equilibrium binding titration in solution; perturbation of DAPA fluorescence (20 nM thrombin, 20 nM DAPA, Solulin titrated), nonlinear regression).
Method: The binding of thrombin to thrombomodulin was measured as an equilibrium binding assay. A solution containing thrombin (20 nM), thrombomodulin (1.54 μM), and DAPA (20 nM, dansylarginine N-3-(ethyl-1,5-pentanediyl)amide, a fluorescent, reversible thrombin inhibitor) in 0.02 M Tris-HCl, 0.15 M NaCl, 5.0 mM CaCl₂, 0.01% Tween 80, pH 7.4, was added in small successive aliquots to an otherwise identical solution that lacked thrombomodulin. The additions were performed in a cuvette fitted with a magnetic stirrer in the sample compartment of a Perkin-Elmer model LS50B spectrofluorimeter. Intensity values were continuously recorded with excitation and emission wavelengths of 280 and 545 nm, respectively. A 430-nm cut-off filter was used in the emission beam. The intensity of fluorescence, I, was assumed to be the sum of intensities from thrombin-DAPA (T·D) and thrombin-thrombomodulin-DAPA (T·TM·D). That is, I=i₁·[T·D]+i₂·[T·TM·D], where i₁ and i₂ are the coefficients of fluorescence for T·D and T·TM·D (since excitation was at 280 nm, the emission from free DAPA was negligible).

Kd [nM] | Binder
23 | B8
